Results on 13 molecules are retold here after US20240294611A1 (University of Texas, published 2024).

For assay [1], the target named is T1, SARS-CoV-2 HexaPro S2 (isolated S2 domain) (SARS-CoV-2, UniProt P0DTC2 697-1208).
T1 construct: range 697-1208
The assay can be described thus: BLI equilibrium, IgG on anti-Fc tips.

The target in assay [2] is T2, aglycosylated HexaPro (HexaPro treated with Endo H) (SARS-CoV-2, UniProt P0DTC2 14-1208). The assay can be described thus: BLI equilibrium, IgG on anti-Fc tips.
Assay [3] has as its target T2, aglycosylated HexaPro (HexaPro treated …). Briefly: BLI equilibrium, IgG on anti-Fc sensor.
Assay [4] deals with T1, SARS-CoV-2 HexaPro S2 (isolated S2 …). Briefly: BLI; column head says Fab Kd, footnote says immobilized IgG. (BLI is a label-free optical method that tracks binding on a fibre tip over time.)
The target of assay [5] is soluble SARS-CoV-2 spike protein variant 4PDS (SARS-CoV-2, UniProt P0DTC2 14-1208).
Assay [6] concerns the target HexaPro E1031R (SARS-CoV-2, UniProt P0DTC2 14-1208).
Assay [7] concerns the target T3, wild-type SARS-CoV-2 spike without stabilizing modifications (on cells or pseudovirus) (SARS-CoV-2, UniProt P0DTC2 14-1273). Briefly: cell-based or functional assay.
The target of assay [8] is T4, SARS-CoV-2 D614G spike without stabilizing modifications (on cells or pseudovirus) (SARS-CoV-2, UniProt P0DTC2 14-1273). The assay can be described thus: cell-based or functional assay.
Assay [9] concerns the target T3, wild-type SARS-CoV-2 spike without …. Briefly: cell-based or functional assay. The source holds these as a separate data set.
Assay [10] deals with T4, SARS-CoV-2 D614G spike without …. Briefly: cell-based or functional assay. This is another data set of the same source.
Assay [11] has as its target SARS-CoV-2 B.1.1.7 (variant Alpha) spike on pseudovirus (SARS-CoV-2, UniProt P0DTC2 14-1273). Briefly: cell-based or functional assay.
Assay [12] has as its target T1, SARS-CoV-2 HexaPro S2 (isolated S2 …).
Assay [13] shares this target. The source holds these as a separate data set.
Assay [14] has the same target. The source holds these as a separate data set.
Assay [15] has the same target. The source holds these as a separate data set.
Assay [16] has the same target. This is another data set of the same source.

The term Kd denotes the constant that tells how readily two partners part at equilibrium. The low end stands for tighter binding, the high end for weaker binding. What is called kon is the second-order rate constant of association. A low value points to slow association. One may read the koff as a measure of how fast the partners let go of each other.

Where “and” joins values, the source holds several entries; their conditions need not be identical. Identical values can stand only once. Like-named read-outs stand apart in the source and are kept apart here.

B1: 4H2 full-length antibody (mouse variable region-human IgG1 constant region chimera) (antibody, V domains shown)
VH: EVQVVESGGGLVQPGGSRKLSCAASGFTFSSYGMSWVRQTPDKRLEWVATISSGGSYTYYPDSVKGRFTISRDNAKNNLYLQMSSLKSEDTAMYYCARDGYGNYVGMDYWGQGTSVTVSS
VL: DIVLTQSPAIMSASPGEKVTITCSASSSVSYMHWFQQKPGTSPKLWIYSTSNLASGVPARFSGSGSGTSYSLTISSMEAEDAATYYCQQWSSNSYTFGGGTKLEIKR
As for B1, the Kd stood at 63 nM in [1], 9 nM in [2], 9 nM in assay [3] and 63 nM in assay [4].

B2: combination of AM3A3-5 heavy chain with unmodified hu3A3 (WT; ven3A3) light chain (antibody, V domains shown)
VH: QVQLVQSGAEVLKPGASVKLSCKASGFNIKDTYIHWLKQAPGQRLEWIGRIGPAIGNTIYAPKFQGKATITTDTSASTAYLELSSLRSEDTAVYYCARYYGYAYYYFDYWGQGTTVTVSS
VL: DIVMTQSPLSVPVTPGEPVSISCRSSKSLLHSNGNTYLYWFLQKPGQSPQLLIYRMSNLASGVPDRFSGSGSGTAFTLKISRVEAEDVGVYYCMQYLEYPLTFGAGTKLEIK
For B2, in assay [5], the “Fold improvement over WT/WT” value stood at 0.5 fold.

B3: combination of AM3A3-3 heavy chain with AM3A3-5 light chain (antibody, V domains shown)
VH: QVQLVQSGADVLKPGASVKLSCKASGFNIKNTYIHWLKQAPGQRLEWIGRIGPAIGNTIYAPKFQGKATITTDTSASTAYLELSSLRSEDTAVYYCARYYGSSYYYLDYWGQGTTVTVSS
VL: DIVMTQSPLSVPVTPGEPVSISCRSSKSLLHSNGNTYLYWFLQKPGQSPQLLIARMSTLASGVPDRFSGSGSGTAFTLKISRVEAEDVGVYYCMQYLEYPLTFGAGTKLEIK
For the molecule B3, the “Fold improvement over WT/WT” value in [5] turned out to be 95.6 fold.

B4: combination of unmodified hu3A3 (WT; ven3A3) heavy chain with AM3A3-3 light chain (antibody, V domains shown)
VH: QVQLVQSGAEVLKPGASVKLSCKASGFNIKDTYIHWLKQAPGQRLEWIGRIGPAIGNTIYAPKFQGKATITTDTSASTAYLELSSLRSEDTAVYYCARYYGSSYYYFDYWGQGTTVTVSS
VL: DIVMTQSPLSVPVTPGEPVSISCRSSKSLHHSNGNTYLYWFLQKPGQSPQLLIYRMSNLASGVPDRFSGSGNGTAFTLKISRVEAEDVGVYYCMQYLEYPLTFDAGTKLEIK
Consider B4, for which the “Fold improvement over WT/WT” value in assay [5] is 13.7 fold.

B5: AM3A3-5 (affinity matured humanized 3A3) (antibody, V domains shown)
VH: QVQLVQSGAEVLKPGASVKLSCKASGFNIKDTYIHWLKQAPGQRLEWIGRIGPAIGNTIYAPKFQGKATITTDTSASTAYLELSSLRSEDTAVYYCARYYGYAYYYFDYWGQGTTVTVSS
VL: DIVMTQSPLSVPVTPGEPVSISCRSSKSLLHSNGNTYLYWFLQKPGQSPQLLIARMSTLASGVPDRFSGSGSGTAFTLKISRVEAEDVGVYYCMQYLEYPLTFGAGTKLEIK
Regarding B5, in [5], the “Fold improvement over WT/WT” value was 50.5 fold.

B6: combination of AM3A3-5 heavy chain with AM3A3-3 light chain (antibody, V domains shown)
VH: QVQLVQSGAEVLKPGASVKLSCKASGFNIKDTYIHWLKQAPGQRLEWIGRIGPAIGNTIYAPKFQGKATITTDTSASTAYLELSSLRSEDTAVYYCARYYGYAYYYFDYWGQGTTVTVSS
VL: DIVMTQSPLSVPVTPGEPVSISCRSSKSLHHSNGNTYLYWFLQKPGQSPQLLIYRMSNLASGVPDRFSGSGNGTAFTLKISRVEAEDVGVYYCMQYLEYPLTFDAGTKLEIK
Consider B6, for which the “Fold improvement over WT/WT” value in [5] turned out to be 4.3 fold.

B7: combination of unmodified hu3A3 (WT; ven3A3) heavy chain with AM3A3-5 light chain (antibody, V domains shown)
VH: QVQLVQSGAEVLKPGASVKLSCKASGFNIKDTYIHWLKQAPGQRLEWIGRIGPAIGNTIYAPKFQGKATITTDTSASTAYLELSSLRSEDTAVYYCARYYGSSYYYFDYWGQGTTVTVSS
VL: DIVMTQSPLSVPVTPGEPVSISCRSSKSLLHSNGNTYLYWFLQKPGQSPQLLIARMSTLASGVPDRFSGSGSGTAFTLKISRVEAEDVGVYYCMQYLEYPLTFGAGTKLEIK
As to B7, the “Fold improvement over WT/WT” value in assay [5] came to 63.7 fold.

B8: combination of AM3A3-3 heavy chain with unmodified hu3A3 (WT; ven3A3) light chain (antibody, V domains shown)
VH: QVQLVQSGADVLKPGASVKLSCKASGFNIKNTYIHWLKQAPGQRLEWIGRIGPAIGNTIYAPKFQGKATITTDTSASTAYLELSSLRSEDTAVYYCARYYGSSYYYLDYWGQGTTVTVSS
VL: DIVMTQSPLSVPVTPGEPVSISCRSSKSLLHSNGNTYLYWFLQKPGQSPQLLIYRMSNLASGVPDRFSGSGSGTAFTLKISRVEAEDVGVYYCMQYLEYPLTFGAGTKLEIK
For B8, in [5], the “Fold improvement over WT/WT” value stood at 11.6 fold.

B9: humanized 3A3 with ven3A3VH and ven3A3VL (antibody, V domains shown)
VH: QVQLVQSGAEVLKPGASVKLSCKASGFNIKDTYIHWLKQAPGQRLEWIGRIGPAIGNTIYAPKFQGKATITTDTSASTAYLELSSLRSEDTAVYYCARYYGSSYYYFDYWGQGTTVTVSS
VL: DIVMTQSPLSVPVTPGEPVSISCRSSKSLLHSNGNTYLYWFLQKPGQSPQLLIYRMSNLASGVPDRFSGSGSGTAFTLKISRVEAEDVGVYYCMQYLEYPLTFGAGTKLEIK
For the molecule B9, the “Fold improvement over WT/WT” value in assay [5] turned out to be 1 fold.

B10: AM3A3-3 (affinity matured humanized 3A3) (antibody, V domains shown)
VH: QVQLVQSGADVLKPGASVKLSCKASGFNIKNTYIHWLKQAPGQRLEWIGRIGPAIGNTIYAPKFQGKATITTDTSASTAYLELSSLRSEDTAVYYCARYYGSSYYYLDYWGQGTTVTVSS
VL: DIVMTQSPLSVPVTPGEPVSISCRSSKSLHHSNGNTYLYWFLQKPGQSPQLLIYRMSNLASGVPDRFSGSGNGTAFTLKISRVEAEDVGVYYCMQYLEYPLTFDAGTKLEIK
For B10, the “Fold improvement over WT/WT” value in assay [5] was 63.3 fold.

B11: 4A5 full-length antibody (mouse variable region-human IgG1 constant region chimera) (antibody, V domains shown)
VH: QVQLQQSGAELAKPGASVKMSCKASGYTFTSYWMHWVKQRPGQGLEWVGMIDPSNSETRLNQKFKDKATLNVDKSSNTAYMQLSSLTSEDSAVYYCARLGRYWGQGTTLTVSS
VL: DIVMTQSHKFMSTSVGDRVSITCKASQNVGANVAWYQQKPGQSPKALIYSASYRYSGVPDRFTGSGSGTDFTLTISNVQSEDLAEYFCQQYNSYPYTSGGGTKLEIKR
Turning to B11, the Kd in [1] came to 11 nM; in assay [2], 10 nM; in [3], 10 nM; in assay [4] it was 11 nM.

B12: 3A3 full-length antibody (mouse variable region-human IgG1 constant region chimera) (antibody, V domains shown)
VH: QVQLQQSGAELLKPGASVKLSCTASGFNIKDTYIHWLKQRPEQGLEWIGRIGPAIGNTIYAPKFQGKATITTDTSSNTAYLQLSSLTSEDTAVYYCARYYGSSYYYFDYWGQGTTLTVSS
VL: DIVMTQSAPSVPVTPGESVSISCRSSKSLLHSNGNTYLYWFLQRPGQSPQLLIYRMSNLASGVPDRFSGSGSGTAFTLRISRVEAEDVGVYYCMQYLEYPLTFGAGTKLELKR
Consider B12, for which the Kd in assay [6] was determined as 1.5 nM; in assay [2] it was 7.9 nM; in assay [3] it was 8.4 nM. The molecule also yielded a kon in assay [6] of 2.88e+06 M⁻¹ s⁻¹. Moreover, the figures for the “IC50 of pseudovirus entry (FIG. 3A)” value in assay [7] and in assay [8] were 25.6 µg/mL and 2.05 µg/mL, respectively. Also, the “IC50 of pseudovirus infection (FIG. 3A)” value in [7] is about 173 nM; in assay [8], about 14 nM. Moreover, the “Pseudovirus IC50” value is 212 nM in assay [9], 94 nM in assay [10] and 119 nM in assay [11].

B13: 3A3 Fab (mouse Fab fragment) (Fab, V domains shown)
VH: QVQLQQSGAELLKPGASVKLSCTASGFNIKDTYIHWLKQRPEQGLEWIGRIGPAIGNTIYAPKFQGKATITTDTSSNTAYLQLSSLTSEDTAVYYCARYYGSSYYYFDYWGQGTTLTVSS
VL: DIVMTQSAPSVPVTPGESVSISCRSSKSLLHSNGNTYLYWFLQRPGQSPQLLIYRMSNLASGVPDRFSGSGSGTAFTLRISRVEAEDVGVYYCMQYLEYPLTFGAGTKLELKR
Take B13: the dissociation constant Kd in assay [12] is about 2.5 nM; in assay [13], 2.2 nM and 3.2 nM; in assay [14], 3.2 nM; in assay [15], 2.2 nM; in [16], 3.6 nM. For the same molecule, the koff was 0.005 s⁻¹ in assay [12], 0.0049 s⁻¹ in assay [15] and 0.0046 s⁻¹ in assay [16]. Besides, the values for the kon in assay [12], in [15] and in assay [16] were about 2e+06 M⁻¹ s⁻¹, 2.3e+06 M⁻¹ s⁻¹ and 1.3e+06 M⁻¹ s⁻¹, respectively.
